Measurements published in article PMC4575080, “Biophysical Studies on BEX3, the p75^NTR-Associated Cell Death Executor, Reveal a High-Order Oligomer with Partially Folded Regions” (PLoS ONE, 2015).

B2: Brain Expressed X-linked protein 3 (BEX3) (natural protein, UniProt Q9WTZ9 1-124, looked up)
chain: MANVHQENEEMEQPLQNGQEDRPVGGGEGHQPAANNNNNNHNHNHNHHRRGQARRLAPNFRWAIPNRQMNDGLGGDGDDMEMFMEEMREIRRKLRELQLRNCLRILMGELSNHHDHHDEFCLMP
notes: BEX3 (NADE), cDNA encoding 'the mature BEX3' in pET21d; UniProt Q9WTZ9 is printed in the introduction for BEX3; High-order oligomer in native buffer; also called NADE; p75NTR-associated cell death executor

Experiments:
[1] = target: B2; experiment: SPR; p75NTR DD (13 uM) amine-coupled to a CM5 chip (4,000 RU), Biacore X; BEX3 0.2-0.8 uM injected in Buffer A (25 mM MES pH 7.0, 150 mM NaCl, 6 mM beta-ME), 10 uL/min; global fit; apparent Kd = koff/kon; conditions: both partners purified
[2] = target: the molecule itself; experiment: SDS-PAGE (SDS-resistant oligomer); refolded BEX3 on SDS-PAGE, before and after addition of 4 or 7 M urea to the sample loading buffer

B1: death domain of p75NTR (amino acids 326 to 417) (domain or fragment, UniProt Q9Z0W1 326-417, looked up)
chain: TASGQALKGDGNLYSSLPLTKREEVEKLLNGDTWRHLAGELGYQPEHIDSFTHEACPVRALLASWGAQDSATLDALLAALRRIQRADIVESL
notes: neurotrophin receptor p75 (p75NTR), death domain, amino acids 326 to 417; UniProt Q9Z0W1 is printed in the introduction for p75NTR; For some experiments the His-tag was removed with TEV protease; also called p75NTR DD; His-p75NTR DD
- Kd [1]: 0.55 µM

Binder: B2
- stoichiometry N [2]: 2
